Measured values as given in patent US20260176336A1 (MESTAG THERAPEUTICS, published 2026).

Legend:
[1] = target: T1, human FAP (Acro, cat no FAP-H82Q6) (human, UniProt Q12884 26-760); assay: BLI (Octet), antibody captured by anti-Fc, FAP as analyte; * value outside instrument specifications; avid binding to dimeric FAP; value flagged as outside instrument specifications
T1 construct: 'FAP is naturally a dimeric antigen'
Protocol: Binding to recombinant FAP proteins was investigated by Bio-Layer Interferometry (BLI) using the Octet instrument. Using standard amine coupling chemistry, an anti-Fc antibody was immobilised on the surface of ARG biosensors (Fortebio). The FAP/LTBR bispecific antibodies were loaded on the previously coated surface with anti-Fc capture antibody, followed by a 2-fold series dilution starting at 50 nM of either cyno FAP (Acro, cat no FAP-C82Q5) or human FAP (Acro, cat no FAP-H82Q6). Binding kinetics were studied in a 1× Kinetics buffer where the association was allowed for 200 seconds, followed by dissociation for 400 seconds. Sensor tips were regenerated using 10 mM Glycine pH 2.0. Data generated were referenced by subtracting a parallel buffer blank, the baseline was aligned with the y-axis, inter-step correlation by alignment against dissociation was performed, and the data were smoothed by a Savitzky-Golay filter in the data analysis software. The processed data were fitted using a 1:1 Langmuir binding model with R\hat{ }2 as a measurement of fitting accuracy. The Results are summarised in. Avidity was observed as FAP is naturally a dimeric antigen, and the limited detection by Octet with these molecules has been reached. Species cross-reactivity has been confirmed for all test samples.

[2] = target: cynomologus recombinant LTBR (Octet, Example 4.8) (cynomolgus (Macaca fascicularis), UniProt P36941 31-227 (human entry), limits assumed); assay: BLI (Octet), cyno LTBR immobilised on ARG sensor, antibody at 25 nM
Protocol: A 2-fold series dilution starting at 50 nM of cynomologus recombinant LTBR was immobilised on the surface of ARG biosensors (Fortebio), followed by FAP/LTBR bispecific at 25 nM. Binding kinetics were studied in a 1× Kinetics buffer where the association was allowed for 180 seconds, followed by dissociation for 100 seconds. Sensor tips were regenerated using ethylene glycol. Data generated were referenced by subtracting a parallel buffer blank, the baseline was aligned with the y-axis, inter-step correlation by alignment against dissociation was performed, and the data were smoothed by a Savitzky-Golay filter in the data analysis software. The processed data were fitted using a 1:1 Langmuir binding model with R\hat{ }2 as a measurement of fitting accuracy. The KD values can be found in.

[3] = target: T2, human LTBR endogenously expressed on cells (HepG2, A549, A375, HCC1187, RPMI-7951, primary human breast CAFs) (human, UniProt P36941 31-435); assay: cell-based or functional assay
[4] = target: T2, human LTBR endogenously expressed on …; assay: flow cytometry, A549 cells
Protocol: (§1) In short, 1×10⁶ cells were resuspended in the FACS buffer (1% BSA, 0.1% Sodium Azide in PBS), and 50 μl was added to each well (5×10⁴ cells/well) of a 96-U bottom plate. The cells were washed once and resuspended in 50 μl/well of FACS buffer containing a 1:3, 11-point series dilutions of constructs 4.1-4.6 and clones 4.8-4.9 followed by 1 h incubation at 4° C. […] Next, cells were washed and resuspended in FACS buffer and read on Beckman Coulter CytoFLEX. The data were analysed using FloJo V10 and GraphPad Prism v9. Clone 4.7 was tested for binding to A375 (LTBR positive cell line) and the HEK293-FAP overexpressing cell line, as described in examples 2.4 and 3.5. The EC50 values can be found in.

[5] = target: T2, human LTBR endogenously expressed on …; assay: cell-based or functional assay; remark: listed apart in the source
[6] = target: T2, human LTBR endogenously expressed on …; assay: cell-based or functional assay; remark: listed apart in the source
[7] = target: T2, human LTBR endogenously expressed on …; assay: cell-based or functional assay; remark: listed apart in the source
[8] = target: T3, Biotinylated hLTBR-His-Avitag (Acro, cat no LTR-H82E9-25 µg) (human, UniProt P36941 31-227, biotinylated (Avitag)); assay: BLI (Octet), biotinylated LTBR on SA sensor, antibody as analyte
T3 construct: bought protein loaded on SA Streptavidin biosensors
Protocol: Briefly, Biotinylated hLTBR-His-Avitag (Acro, cat no LTR-H82E9-25 μg) was loaded on SA Streptavidin biosensors (Fortebio) in kinetics buffer (ForteBio) followed by a 2-fold dilution series starting at 50 nM of FAP/LTBR bispecific antibodies. Binding kinetics were studied in a 1× Kinetics buffer where the association was allowed for 100 seconds, followed by dissociation for 300 seconds. Data generated were referenced by subtracting a parallel buffer blank, the baseline was aligned with the y-axis, inter-step correlation by alignment against dissociation was performed, and the data were smoothed by a Savitzky-Golay filter in the data analysis software. The processed data were fitted using a 1:1 Langmuir binding model with R\hat{ }2 as a measurement of fitting accuracy. The KD and R\hat{ }2 values can be found in.

[9] = target: T4, human FAP expressed on cells (transfected HEK293; FAP-CHO-K1 recombinant cell line, BPS cat no. 79947) (human, UniProt Q12884 1-760); assay: flow cytometry, FAP-CHO-K1 cells
T4 construct: also called HuFAP-HEK293; Hek-FAP
Protocol: as §1

[10] = target: T2, human LTBR endogenously expressed on …; assay: cell-based or functional assay; remark: listed apart in the source
[11] = target: Human LTBR (Acro), recombinant protein (human, UniProt P36941 31-227, limits assumed); assay: SPR (Carterra LSA) as in Example 2.6, antibody captured, LTBR as analyte
Protocol: (§2) The binding of anti-LTBR antibodies to human and cynomolgus LTBR was investigated by Surface Plasmon Resonance (SPR) on Carterra LSA. An EC30M chip was used to capture the test antibodies. Activation with EDC and sNHS occurred in MES pH 5.5 to prepare the chip for amine coupling. Goat anti-human IgG Fc antibody was then captured to the chip via incubation for 10 minutes. Excess conjugation sites were quenched with 1M Ethanolamine pH 8. To measure monovalent binding kinetics, antibodies were printed/spotted onto the chip and allowed to bind to the goat antibody, followed by subsequent washing. After the preparation, the printed chip was exposed to repeated rounds of association and dissociation with increasing analyte concentrations. In this work, recombinant proteins (Human LTBR (Acro) or cyno LTBR His (R&D)) were serially diluted across a range starting at 1500 nM with 3-fold dilutions and 10 points. The curves were fitted to global fit in a 1:1 binding model to obtain KD values. The binding affinity to both species is reported.

[12] = target: T5, cyno LTBR His (R&D), recombinant protein (cynomolgus (Macaca fascicularis), UniProt P36941 31-227 (human entry), limits assumed); assay: as above
T5 construct: bought protein used as analyte on Carterra LSA
Protocol: as §2

[13] = target: T2, human LTBR endogenously expressed on …; assay: flow cytometry, A375 cells
[14] = target: T4, human FAP expressed on cells …; assay: flow cytometry, HEK293-FAP overexpressing cells
[15] = target: Human FAP (Acro), recombinant protein (human, UniProt Q12884 26-760); assay: SPR (Carterra LSA) as in Example 3.6, antibody captured, FAP as analyte; * value outside instrument specifications
Protocol: (§3) Binding of anti-FAP antibodies to human and cynomolgus FAP was investigated by Surface Plasmon Resonance (SPR) on Carterra LSA. An EC30M chip was used to capture the test antibodies. The chip was activated for bioconjugation using EDC and sNHS in MES pH 5.5 to prepare the chip for amine coupling. Goat anti-human IgG Fc antibody was then captured to the chip via incubation for 10 minutes. Excess conjugation sites were quenched with 1M Ethanolamine pH 8. To measure monovalent binding kinetics, antibodies were printed/spotted onto the chip and allowed to bind to the goat antibody, followed by subsequent washing. After the preparation, the printed chip was exposed to repeated rounds of association and dissociation with increasing analyte concentrations. In this work, recombinant proteins (Human FAP (Acro) or cyno FAP His (Acro)) were serially diluted across a range starting at 1500 nM with 3-fold dilutions and 10 points. The curves were fitted to global fit in a 1:1 binding model to obtain KD values. The binding affinity to both human and cynomolgus FAP is reported in.

[16] = target: T6, cyno FAP His (Acro), recombinant protein (cynomolgus (Macaca fascicularis), UniProt Q12884 26-760 (human entry)); assay: as above
T6 construct: bought protein used as analyte on Carterra LSA
Protocol: as §3

T2 sequence (P36941 31-435): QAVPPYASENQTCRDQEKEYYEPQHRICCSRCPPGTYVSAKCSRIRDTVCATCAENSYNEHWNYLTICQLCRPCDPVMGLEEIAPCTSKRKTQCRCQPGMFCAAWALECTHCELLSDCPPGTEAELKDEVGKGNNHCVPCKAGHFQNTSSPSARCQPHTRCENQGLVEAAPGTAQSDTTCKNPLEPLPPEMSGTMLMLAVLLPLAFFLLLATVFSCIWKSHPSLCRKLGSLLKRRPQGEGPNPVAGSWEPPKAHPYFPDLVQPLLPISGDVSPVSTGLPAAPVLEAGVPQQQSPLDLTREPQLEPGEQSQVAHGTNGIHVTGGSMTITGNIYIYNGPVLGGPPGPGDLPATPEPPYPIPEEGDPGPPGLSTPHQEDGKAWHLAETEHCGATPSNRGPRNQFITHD
Chain of Human LTBR (Acro), recombinant protein (P36941 31-227 limits assumed): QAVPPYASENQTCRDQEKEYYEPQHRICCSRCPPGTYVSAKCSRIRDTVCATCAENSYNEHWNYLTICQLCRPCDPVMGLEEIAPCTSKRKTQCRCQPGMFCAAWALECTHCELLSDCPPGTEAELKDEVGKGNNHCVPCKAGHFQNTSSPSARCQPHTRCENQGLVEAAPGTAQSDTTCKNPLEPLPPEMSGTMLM
T3 sequence (P36941 31-227 limits assumed): as above
Chain of cynomologus recombinant LTBR (Octet, Example 4.8) (P36941 other isoform, or with tags, fused parts or gaps limits assumed): as the sequence (P36941 31-227 limits assumed) above, with A2V, A7G, Q24R, I45S, N163D, K181R, L184S, P186S counted along it
T5 sequence (P36941 other isoform, or with tags, fused parts or gaps limits assumed): as the sequence (P36941 31-227 limits assumed) above, with A2V, A7G, Q24R, I45S, N163D, K181R, L184S, P186S counted along it

B1: Clone 4.1 (bispecific antibody, human IgG1, kappa, L234A L235A)
heavy 1: not shown
heavy 2: QLQLQESGPGLVKPSETLSLTCTVSGGSISSSTYYWGWIRQPPGKGLEWIGSIFYSGNTYYNPSLKSRVTISVDTSKNHFSLKLSSVTAADTAVYYCAREIIEPRPGYFDYWGQGTLVTVSSASTKGPSVFPLAPSSKSTSGGTAALGCLVKDYFPEPVTVSWNSGALTSGVHTFPAVLQSSGLYSLSSVVTVPSSSLGTQTYICNVNHKPSNTKVDKKVEPKSCDKTHTCPPCPAPEAAGGPSVFLFPPKPKDTLMISRTPEVTCVVVDVSHEDPEVKFNWYVDGVEVHNAKTKPREEQYNSTYRVVSVLTVLHQDWLNGKEYKCKVSNKALPAPIEKTISKAKGQPREPQVCTLPPSRDELTKNQVSLSCAVKGFYPSDIAVEWESNGQPENNYKTTPPVLDSDGSFFLVSKLTVDKSRWQQGNVFSCSVMHEALHNHYTQKSLSLSPG
light: not shown
notes: FAP:LTBR 1:1 heterodimer of LTBR VHH (clone 1.6) paired with FAP Fab (clone 3.5), human IgG1 LALA
- Kd [1]: 0.182 nM
- Kd [2]: 7.7 nM
- HepG2 Reporter assay, HepG2:FAP-CHO-K1 Co-culture EC50 [3]: 0.07 nM
- EC50 [4]: 29 nM
- HCC-1187:RPMI7951 (cis-activation) co-culture assay CCL5 read-out EC50 [5]: 0.052 nM
- HCC-1187:RPMI7951 (trans-activation) co-culture assay, CCL19 Read-out EC50 [5]: 0.084 nM
- chemokine (CCL5) induction in RPMI-7951 EC50 [6]: 0.09 nM
- ICAM1 upregulation in CAFs monoculture assay EC50 [7]: 0.026 nM
- Kd [8]: 4 nM
- EC50 [9]: 0.28 nM
- CCL19 upregulation, HCC1187:CAF Co-culture EC50 [10]: 0.055 nM

B2: Clone 4.7 (bispecific antibody, human IgG1, kappa, L234A L235A)
heavy 1: not shown
heavy 2: QVQLVQSGAEVKKPGASVKVSCKASGYTFTGYYMNWVRQAPGQGLEWMGWINPQSGDVNFAQKFQGRVTMTRDTSISTAYMELSRLRSDDTAVYYCARQFRGYSYGYGMDVWGQGTTVTVSSASTKGPSVFPLAPSSKSTSGGTAALGCLVKDYFPEPVTVSWNSGALTSGVHTFPAVLQSSGLYSLSSVVTVPSSSLGTQTYICNVNHKPSNTKVDKKVEPKSCDKTHTCPPCPAPEAAGGPSVFLFPPKPKDTLMISRTPEVTCVVVDVSHEDPEVKFNWYVDGVEVHNAKTKPREEQYNSTYRVVSVLTVLHQDWLNGKEYKCKVSNKALPAPIEKTISKAKGQPREPQVCTLPPSRDELTKNQVSLSCAVKGFYPSDIAVEWESNGQPENNYKTTPPVLDSDGSFFLVSKLTVDKSRWQQGNVFSCSVMHEALHNHYTQKSLSLSPG
light: not shown
notes: FAP:LTBR 2:1 heterodimer of FAP mAb (clone 3.7) with C terminal fused LTBR scFv (clone 2.3), human IgG1 LALA
- Kd [11]: 1.8 nM
- Kd [12]: 0.4 nM
- EC50 [13]: 6 nM
- HepG2 Reporter assay, HepG2:FAP-CHO-K1 Co-culture EC50 [3]: 0.023 nM
- EC50 [14]: 0.34 nM
- Kd [15]: 0.16 nM
- Kd [16]: 0.15 nM
- HCC-1187:RPMI7951 (cis-activation) co-culture assay CCL5 read-out EC50 [5]: 0.01 nM
- chemokine (CCL5) induction in RPMI-7951 EC50 [6]: 0.0096 nM
- ICAM1 upregulation in CAFs monoculture assay EC50 [7]: 0.012 nM
- CCL19 upregulation, HCC1187:CAF Co-culture EC50 [10]: 0.073 nM
